According to article PMC10786891, “Massively parallel profiling of RNA-targeting CRISPR-Cas13d”:
Numbering of substitutions follows the chain as printed. Numbers in names are those of the source.

B1: target 1 A18C,U19G (mixed)
RNA 1: CACCCGUGCAAAAAUGCAGGGGUCUAAAACUGAGCGGAUAACCUCUCUAUGG
RNA 2: GGGAAUGGAUCCACAUCUACGAAUUCGUACCAGCGAGAGGUUAUCCGCUCACCGAGAUCGGAAGAGCACACGU
B2: target 1 insC 3' of 18,insG 3' of 1 (mixed)
RNA 1: B1 RNA 1
RNA 2: GGGAAUGGAUCCACAUCUACGAAUUCGUACCAUACGAGAGGUUAUCCGCUCAGCCGAGAUCGGAAGAGCACACGU
B3: target 1 insU 3' of 20,insA 3' of 4 (mixed)
RNA 1: B1 RNA 1
RNA 2: B2 RNA 2 with A34U, C35A, U50A, C51U, A52C, G53A
B4: target 3 U8A,A18G (mixed)
RNA 1: CACCCGUGCAAAAUUGCAGGGGUCUAAAACGACCUGAAUAUUUCAGAUCAAA
RNA 2: GGGAAUGGAUCCACAUCUACGAAUUCGUUUUUGGUCUGAAAUAAUCAGGUCUGCAGAUCGGAAGAGCACACGU
B5: target 3 insA 3' of 8,insU 3' of 4 (mixed)
RNA 1: B4 RNA 1
RNA 2: GGGAAUGGAUCCACAUCUACGAAUUCGUUUUUGAUCUGAAAUAUAUCAGUGUCUGCAGAUCGGAAGAGCACACGU
B6: target 3 insA 3' of 8,insU 3' of 3 (mixed)
RNA 1: B4 RNA 1
RNA 2: B5 RNA 2 with U50G, G51U
B7: target 3 G4A,A18G (mixed)
RNA 1: B4 RNA 1
RNA 2: B4 RNA 2 with A44U, G48A
B8: target 3 C6U,A9G (mixed)
RNA 1: B4 RNA 1
RNA 2: B4 RNA 2 with G34A, A43G, A44U, C46U
B9: target 3 A12C (mixed)
RNA 1: B4 RNA 1
RNA 2: B4 RNA 2 with G34A, A40C, A44U
B10: target 3 U7G,U8A (mixed)
RNA 1: B4 RNA 1
RNA 2: B4 RNA 2 with G34A, U45G
B11: target 3 U2G,U8C (mixed)
RNA 1: B4 RNA 1
RNA 2: B4 RNA 2 with G34A, A44C, U50G
B12: target 3 C1G,A5C (mixed)
RNA 1: B4 RNA 1
RNA 2: B4 RNA 2 with G34A, A44U, A47C, C51G
B13: target 3 U2G,A5G (mixed)
RNA 1: B4 RNA 1
RNA 2: B4 RNA 2 with G34A, A44U, A47G, U50G
B14: target 3 insU 3' of 22,insU 3' of 5 (mixed)
RNA 1: B4 RNA 1
RNA 2: GGGAAUGGAUCCACAUCUACGAAUUCGUUUUUUGAUCUGAAAUAUUCAUGGUCUGCAGAUCGGAAGAGCACACGU
B15: target 3 G3C,U8A (mixed)
RNA 1: B4 RNA 1
RNA 2: B4 RNA 2 with G34A, G49C
B16: target 3 U7G,U22A (mixed)
RNA 1: B4 RNA 1
RNA 2: B4 RNA 2 with U30A, G34A, A44U, U45G
B17: target 3 A11C (mixed)
RNA 1: B4 RNA 1
RNA 2: B4 RNA 2 with G34A, A41C, A44U
B18: target 3 C6A,U7G (mixed)
RNA 1: B4 RNA 1
RNA 2: B4 RNA 2 with G34A, A44U, U45G, C46A
B19: target 3 insC 3' of 4,insA 3' of 3 (mixed)
RNA 1: B4 RNA 1
RNA 2: B5 RNA 2 with A45U, U46C, C47A, A48G, G49C, U50G, G51A
B20: target 3 complement block 4-7 (mixed)
RNA 1: B4 RNA 1
RNA 2: B4 RNA 2 with G34A, A44U, U45A, C46G, A47U, G48C
B21: target 3 insA 3' of 22,insC 3' of 19 (mixed)
RNA 1: B4 RNA 1
RNA 2: GGGAAUGGAUCCACAUCUACGAAUUCGUUUAUUGCAUCUGAAAUAUUCAGGUCUGCAGAUCGGAAGAGCACACGU
B22: target 3 insC 3' of 4,insU 3' of 3 (mixed)
RNA 1: B4 RNA 1
RNA 2: B5 RNA 2 with A45U, U46C, C47A, A48G, G49C, U50G, G51U
B23: target 3 C6U,A11U (mixed)
RNA 1: B4 RNA 1
RNA 2: B4 RNA 2 with G34A, A41U, A44U, C46U
B24: target 3 C1U,U2G (mixed)
RNA 1: B4 RNA 1
RNA 2: B4 RNA 2 with G34A, A44U, U50G, C51U
B25: target 3 insA 3' of 22,insG 3' of 6 (mixed)
RNA 1: B4 RNA 1
RNA 2: B14 RNA 2 with U31A, A48G, U49A
B26: target 3 insA 3' of 7,insU 3' of 3 (mixed)
RNA 1: B4 RNA 1
RNA 2: B5 RNA 2 with A45U, U46A, U50G, G51U
B27: target 3 U2A,G4A (mixed)
RNA 1: B4 RNA 1
RNA 2: B4 RNA 2 with G34A, A44U, G48A, U50A
B28: target 3 U7G,A18G (mixed)
RNA 1: B4 RNA 1
RNA 2: B4 RNA 2 with A44U, U45G
B29: target 3 insG 3' of 5,insA 3' of 3 (mixed)
RNA 1: B4 RNA 1
RNA 2: B5 RNA 2 with A45U, U46C, C47A, A48G, U50G, G51A
B30: target 3 C1G,U7G (mixed)
RNA 1: B4 RNA 1
RNA 2: B4 RNA 2 with G34A, A44U, U45G, C51G
B31: target 3 A5G,A13G (mixed)
RNA 1: B4 RNA 1
RNA 2: B4 RNA 2 with G34A, A39G, A44U, A47G
B32: target 3 A12G,U22A (mixed)
RNA 1: B4 RNA 1
RNA 2: B4 RNA 2 with U30A, G34A, A40G, A44U
B33: target 3 A5C (mixed)
RNA 1: B4 RNA 1
RNA 2: B4 RNA 2 with G34A, A44U, A47C
B34: target 3 insU 3' of 19,insU 3' of 3 (mixed)
RNA 1: B4 RNA 1
RNA 2: B14 RNA 2 with U33G, G34U, U49G, G51U

Molecular target: T1, EsCas13d, nuclease-dead (Eubacterium siraeum, UniProt B0MS50, R295A;H300A;R849A;H854A)
T1 sequence: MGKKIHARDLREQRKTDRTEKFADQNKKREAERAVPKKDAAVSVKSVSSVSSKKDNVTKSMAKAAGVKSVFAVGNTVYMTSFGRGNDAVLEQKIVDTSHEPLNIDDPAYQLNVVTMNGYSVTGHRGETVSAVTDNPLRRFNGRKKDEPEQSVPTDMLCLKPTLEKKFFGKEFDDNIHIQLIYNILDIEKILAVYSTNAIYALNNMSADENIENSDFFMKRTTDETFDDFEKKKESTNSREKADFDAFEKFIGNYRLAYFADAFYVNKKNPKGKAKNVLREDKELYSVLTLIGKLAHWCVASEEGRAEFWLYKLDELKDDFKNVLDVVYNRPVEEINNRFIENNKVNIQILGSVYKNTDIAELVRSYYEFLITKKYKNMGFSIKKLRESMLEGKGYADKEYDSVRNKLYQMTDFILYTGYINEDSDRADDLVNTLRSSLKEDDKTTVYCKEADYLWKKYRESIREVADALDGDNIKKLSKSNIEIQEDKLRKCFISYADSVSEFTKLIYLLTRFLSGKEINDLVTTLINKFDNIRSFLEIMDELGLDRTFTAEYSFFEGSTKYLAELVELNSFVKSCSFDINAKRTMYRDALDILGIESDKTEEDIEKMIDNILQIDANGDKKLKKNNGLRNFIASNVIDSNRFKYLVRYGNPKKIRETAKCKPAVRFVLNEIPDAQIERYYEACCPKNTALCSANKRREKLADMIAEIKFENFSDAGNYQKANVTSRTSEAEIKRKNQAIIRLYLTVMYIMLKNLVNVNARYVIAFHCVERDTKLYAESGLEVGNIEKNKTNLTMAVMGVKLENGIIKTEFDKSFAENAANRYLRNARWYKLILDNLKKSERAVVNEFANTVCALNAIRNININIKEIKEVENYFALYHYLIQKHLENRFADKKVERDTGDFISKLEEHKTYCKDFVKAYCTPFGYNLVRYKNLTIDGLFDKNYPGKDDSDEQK
Experiment: crRNA (strand 1, pre-loaded); Mg2+; 40 mM Tris-HCl pH 7.5, 150 mM NaCl, 6 mM MgCl2, 1 mM DTT, 0.1% Tween-20, 0.2 mg/ml BSA; 25 C; 10 min per concentration, then washed
Conditions: tags: His6-TwinStrep-SUMO cleaved; N-terminal SNAP kept (SNAP-Surface 488); label: 3' end held by stalled T7 RNA polymerase

Binder | Kd [nM]
B1 | 55 ± 14
B2 | 34 ± 4
B3 | 8.6 ± 0.7
B4 | 63 ± 9.5
B5 | 21.8 ± 3.6
B6 | 70 ± 20
B7 | 13.7 ± 1.15
B8 | 22.1 ± 1.9
B9 | 53 ± 8.5
B10 | 67 ± 12
B11 | 20.6 ± 2.2
B12 | 83.5 ± 23
B13 | 2.54 ± 0.36
B14 | 6.45 ± 0.55
B15 | 63.5 ± 7.5
B16 | 41 ± 5.5
B17 | 81.5 ± 34

Binder | Kd [nM]
B18 | 58 ± 6.5
B19 | 34 ± 4.05
B20 | 23.6 ± 1.75
B21 | 91 ± 25.5
B22 | 29.1 ± 3.6
B23 | 92 ± 24
B24 | 91 ± 20
B25 | 12.2 ± 1.3
B26 | 76 ± 32
B27 | 3.11 ± 0.33
B28 | 64 ± 22.5
B29 | 17.2 ± 2.55
B30 | 28.9 ± 5.65
B31 | ~100
B32 | 40.5 ± 5.5
B33 | 64.5 ± 11
B34 | 105 ± 45
